Assay results published in the Human Domainome abundance scans (Beltran et al. 2025).
± gives the uncertainty stated by the source.

assay: abundance fitness (aPCA) (normalised: wild type 0, dead -1); higher = more abundant; growth selection in yeast, the domain comes from the species named; conditions: Homo sapiens

Q: Which abundance fitness does the source give for “NEDD4-like E3 ubiquitin-protein ligase WWP2 G458L, O00308” here?
A: -0.283 ± 0.041

Q: With “NEDD4-like E3 ubiquitin-protein ligase WWP2 G458M, O00308” as the substance, how does the abundance fitness read?
A: -0.148 ± 0.041

Q: With “NEDD4-like E3 ubiquitin-protein ligase WWP2 G458N, O00308” as the substance, how does the abundance fitness read?
A: -0.308 ± 0.093

Q: With “NEDD4-like E3 ubiquitin-protein ligase WWP2 G458P, O00308” as the substance, how does the abundance fitness read?
A: -1.03 ± 0.064

Q: Which abundance fitness does the source give for “NEDD4-like E3 ubiquitin-protein ligase WWP2 G458Q, O00308” here?
A: -0.244 ± 0.064

Q: Which abundance fitness does the source give for “NEDD4-like E3 ubiquitin-protein ligase WWP2 G458R, O00308” here?
A: -0.139 ± 0.046

Q: With “NEDD4-like E3 ubiquitin-protein ligase WWP2 G458S, O00308” as the substance, how does the abundance fitness read?
A: -0.176 ± 0.055

Q: For “NEDD4-like E3 ubiquitin-protein ligase WWP2 G458T, O00308”, which abundance fitness is on record?
A: -0.505 ± 0.058

Q: For “NEDD4-like E3 ubiquitin-protein ligase WWP2 G458V, O00308”, which abundance fitness is on record?
A: -0.992 ± 0.065

Q: With “NEDD4-like E3 ubiquitin-protein ligase WWP2 G458W, O00308” as the substance, how does the abundance fitness read?
A: -0.461 ± 0.045

Q: For “NEDD4-like E3 ubiquitin-protein ligase WWP2 G458Y, O00308”, which abundance fitness is on record?
A: -0.262 ± 0.064

Q: For “NEDD4-like E3 ubiquitin-protein ligase WWP2 G478A, O00308”, which abundance fitness is on record?
A: 0.035 ± 0.058

Q: With “NEDD4-like E3 ubiquitin-protein ligase WWP2 G478C, O00308” as the substance, how does the abundance fitness read?
A: -0.001 ± 0.039

Q: For “NEDD4-like E3 ubiquitin-protein ligase WWP2 G478D, O00308”, which abundance fitness is on record?
A: -0.036 ± 0.05

Q: Which abundance fitness does the source give for “NEDD4-like E3 ubiquitin-protein ligase WWP2 G478E, O00308” here?
A: -0.036 ± 0.063

Q: For “NEDD4-like E3 ubiquitin-protein ligase WWP2 G478F, O00308”, which abundance fitness is on record?
A: -0.014 ± 0.046

Q: For “NEDD4-like E3 ubiquitin-protein ligase WWP2 G478H, O00308”, which abundance fitness is on record?
A: -0.045 ± 0.069

Q: With “NEDD4-like E3 ubiquitin-protein ligase WWP2 G478I, O00308” as the substance, how does the abundance fitness read?
A: 0.136 ± 0.073

Q: For “NEDD4-like E3 ubiquitin-protein ligase WWP2 G478K, O00308”, which abundance fitness is on record?
A: 0.061 ± 0.067

Q: For “NEDD4-like E3 ubiquitin-protein ligase WWP2 G478L, O00308”, which abundance fitness is on record?
A: 0.012 ± 0.035

Q: With “NEDD4-like E3 ubiquitin-protein ligase WWP2 G478M, O00308” as the substance, how does the abundance fitness read?
A: -0.08 ± 0.057

Q: Which abundance fitness does the source give for “NEDD4-like E3 ubiquitin-protein ligase WWP2 G478N, O00308” here?
A: -0.136 ± 0.068

Q: For “NEDD4-like E3 ubiquitin-protein ligase WWP2 G478P, O00308”, which abundance fitness is on record?
A: -0.005 ± 0.052

Q: Which abundance fitness does the source give for “NEDD4-like E3 ubiquitin-protein ligase WWP2 G478Q, O00308” here?
A: 0.038 ± 0.048

Q: With “NEDD4-like E3 ubiquitin-protein ligase WWP2 G478R, O00308” as the substance, how does the abundance fitness read?
A: 0.032 ± 0.047

Q: With “NEDD4-like E3 ubiquitin-protein ligase WWP2 G478S, O00308” as the substance, how does the abundance fitness read?
A: 0.019 ± 0.033

Q: For “NEDD4-like E3 ubiquitin-protein ligase WWP2 G478T, O00308”, which abundance fitness is on record?
A: 0.077 ± 0.059

Q: With “NEDD4-like E3 ubiquitin-protein ligase WWP2 G478V, O00308” as the substance, how does the abundance fitness read?
A: -0.058 ± 0.047

Q: Which abundance fitness does the source give for “NEDD4-like E3 ubiquitin-protein ligase WWP2 G478W, O00308” here?
A: -0.017 ± 0.032

Q: For “NEDD4-like E3 ubiquitin-protein ligase WWP2 G478Y, O00308”, which abundance fitness is on record?
A: -0.084 ± 0.068

Q: With “NEDD4-like E3 ubiquitin-protein ligase WWP2 G482A, O00308” as the substance, how does the abundance fitness read?
A: -0.033 ± 0.042

Q: Which abundance fitness does the source give for “NEDD4-like E3 ubiquitin-protein ligase WWP2 G482C, O00308” here?
A: -0.15 ± 0.062

Q: Which abundance fitness does the source give for “NEDD4-like E3 ubiquitin-protein ligase WWP2 G482E, O00308” here?
A: -0.064 ± 0.049

Q: Which abundance fitness does the source give for “NEDD4-like E3 ubiquitin-protein ligase WWP2 G482F, O00308” here?
A: -0.124 ± 0.06

Q: With “NEDD4-like E3 ubiquitin-protein ligase WWP2 G482H, O00308” as the substance, how does the abundance fitness read?
A: -0.019 ± 0.076

Q: For “NEDD4-like E3 ubiquitin-protein ligase WWP2 G482I, O00308”, which abundance fitness is on record?
A: -0.077 ± 0.046

Q: For “NEDD4-like E3 ubiquitin-protein ligase WWP2 G482K, O00308”, which abundance fitness is on record?
A: -0.037 ± 0.068

Q: Which abundance fitness does the source give for “NEDD4-like E3 ubiquitin-protein ligase WWP2 G482L, O00308” here?
A: -0.086 ± 0.044

Q: For “NEDD4-like E3 ubiquitin-protein ligase WWP2 G482M, O00308”, which abundance fitness is on record?
A: -0.121 ± 0.061

Q: For “NEDD4-like E3 ubiquitin-protein ligase WWP2 G482N, O00308”, which abundance fitness is on record?
A: -0.007 ± 0.039

Q: Which abundance fitness does the source give for “NEDD4-like E3 ubiquitin-protein ligase WWP2 G482P, O00308” here?
A: -0.032 ± 0.07

Q: With “NEDD4-like E3 ubiquitin-protein ligase WWP2 G482Q, O00308” as the substance, how does the abundance fitness read?
A: -0.009 ± 0.057

Q: Which abundance fitness does the source give for “NEDD4-like E3 ubiquitin-protein ligase WWP2 G482R, O00308” here?
A: -0.097 ± 0.043

Q: For “NEDD4-like E3 ubiquitin-protein ligase WWP2 G482S, O00308”, which abundance fitness is on record?
A: -0.025 ± 0.033

Q: Which abundance fitness does the source give for “NEDD4-like E3 ubiquitin-protein ligase WWP2 G482T, O00308” here?
A: -0.019 ± 0.06

Q: Which abundance fitness does the source give for “NEDD4-like E3 ubiquitin-protein ligase WWP2 G482V, O00308” here?
A: -0.108 ± 0.043

Q: Which abundance fitness does the source give for “NEDD4-like E3 ubiquitin-protein ligase WWP2 G482W, O00308” here?
A: -0.151 ± 0.05

Q: For “NEDD4-like E3 ubiquitin-protein ligase WWP2 G482Y, O00308”, which abundance fitness is on record?
A: -0.089 ± 0.045

Q: With “NEDD4-like E3 ubiquitin-protein ligase WWP2 G486A, O00308” as the substance, how does the abundance fitness read?
A: 0.028 ± 0.038

Q: Which abundance fitness does the source give for “NEDD4-like E3 ubiquitin-protein ligase WWP2 G486C, O00308” here?
A: -0.023 ± 0.056

Q: With “NEDD4-like E3 ubiquitin-protein ligase WWP2 G486E, O00308” as the substance, how does the abundance fitness read?
A: 0.044 ± 0.042

Q: With “NEDD4-like E3 ubiquitin-protein ligase WWP2 G486F, O00308” as the substance, how does the abundance fitness read?
A: -0.205 ± 0.073

Q: With “NEDD4-like E3 ubiquitin-protein ligase WWP2 G486H, O00308” as the substance, how does the abundance fitness read?
A: -0.135 ± 0.062

Q: With “NEDD4-like E3 ubiquitin-protein ligase WWP2 G486I, O00308” as the substance, how does the abundance fitness read?
A: -0.028 ± 0.072

Q: With “NEDD4-like E3 ubiquitin-protein ligase WWP2 G486L, O00308” as the substance, how does the abundance fitness read?
A: -0.066 ± 0.042

Q: Which abundance fitness does the source give for “NEDD4-like E3 ubiquitin-protein ligase WWP2 G486M, O00308” here?
A: -0.01 ± 0.036

Q: With “NEDD4-like E3 ubiquitin-protein ligase WWP2 G486N, O00308” as the substance, how does the abundance fitness read?
A: -0.177 ± 0.12

Q: For “NEDD4-like E3 ubiquitin-protein ligase WWP2 G486P, O00308”, which abundance fitness is on record?
A: 0.013 ± 0.049

Q: With “NEDD4-like E3 ubiquitin-protein ligase WWP2 G486Q, O00308” as the substance, how does the abundance fitness read?
A: -0.023 ± 0.054

Q: With “NEDD4-like E3 ubiquitin-protein ligase WWP2 G486R, O00308” as the substance, how does the abundance fitness read?
A: -0.028 ± 0.037

Q: For “NEDD4-like E3 ubiquitin-protein ligase WWP2 G486S, O00308”, which abundance fitness is on record?
A: -0.041 ± 0.049

Q: For “NEDD4-like E3 ubiquitin-protein ligase WWP2 G486V, O00308”, which abundance fitness is on record?
A: -0.01 ± 0.043

Q: For “NEDD4-like E3 ubiquitin-protein ligase WWP2 G486W, O00308”, which abundance fitness is on record?
A: -0.187 ± 0.049

Q: Which abundance fitness does the source give for “NEDD4-like E3 ubiquitin-protein ligase WWP2 G486Y, O00308” here?
A: -0.239 ± 0.069

Q: Which abundance fitness does the source give for “NEDD4-like E3 ubiquitin-protein ligase WWP2 G489A, O00308” here?
A: -0.007 ± 0.041

Q: For “NEDD4-like E3 ubiquitin-protein ligase WWP2 G489C, O00308”, which abundance fitness is on record?
A: -0.066 ± 0.031

Q: Which abundance fitness does the source give for “NEDD4-like E3 ubiquitin-protein ligase WWP2 G489D, O00308” here?
A: -0.02 ± 0.053

Q: With “NEDD4-like E3 ubiquitin-protein ligase WWP2 G489E, O00308” as the substance, how does the abundance fitness read?
A: 0.04 ± 0.049

Q: For “NEDD4-like E3 ubiquitin-protein ligase WWP2 G489F, O00308”, which abundance fitness is on record?
A: -0.028 ± 0.078

Q: Which abundance fitness does the source give for “NEDD4-like E3 ubiquitin-protein ligase WWP2 G489H, O00308” here?
A: -0.155 ± 0.078

Q: For “NEDD4-like E3 ubiquitin-protein ligase WWP2 G489I, O00308”, which abundance fitness is on record?
A: -0.035 ± 0.078

Q: With “NEDD4-like E3 ubiquitin-protein ligase WWP2 G489K, O00308” as the substance, how does the abundance fitness read?
A: 0.001 ± 0.069

Q: For “NEDD4-like E3 ubiquitin-protein ligase WWP2 G489L, O00308”, which abundance fitness is on record?
A: -0.039 ± 0.055

Q: With “NEDD4-like E3 ubiquitin-protein ligase WWP2 G489M, O00308” as the substance, how does the abundance fitness read?
A: -0.048 ± 0.07

Q: With “NEDD4-like E3 ubiquitin-protein ligase WWP2 G489N, O00308” as the substance, how does the abundance fitness read?
A: -0.008 ± 0.033

Q: Which abundance fitness does the source give for “NEDD4-like E3 ubiquitin-protein ligase WWP2 G489P, O00308” here?
A: -0.049 ± 0.041

Q: With “NEDD4-like E3 ubiquitin-protein ligase WWP2 G489Q, O00308” as the substance, how does the abundance fitness read?
A: -0.157 ± 0.077

Q: For “NEDD4-like E3 ubiquitin-protein ligase WWP2 G489R, O00308”, which abundance fitness is on record?
A: -0.035 ± 0.036

Q: For “NEDD4-like E3 ubiquitin-protein ligase WWP2 G489S, O00308”, which abundance fitness is on record?
A: 0.039 ± 0.05

Q: For “NEDD4-like E3 ubiquitin-protein ligase WWP2 G489T, O00308”, which abundance fitness is on record?
A: 0.002 ± 0.066

Q: For “NEDD4-like E3 ubiquitin-protein ligase WWP2 G489V, O00308”, which abundance fitness is on record?
A: -0.031 ± 0.048

Q: For “NEDD4-like E3 ubiquitin-protein ligase WWP2 G489W, O00308”, which abundance fitness is on record?
A: -0.163 ± 0.057

Q: For “NEDD4-like E3 ubiquitin-protein ligase WWP2 G489Y, O00308”, which abundance fitness is on record?
A: -0.334 ± 0.087

Q: With “NEDD4-like E3 ubiquitin-protein ligase WWP2 H465A, O00308” as the substance, how does the abundance fitness read?
A: -0.378 ± 0.05

Q: Which abundance fitness does the source give for “NEDD4-like E3 ubiquitin-protein ligase WWP2 H465C, O00308” here?
A: -0.411 ± 0.067

Q: Which abundance fitness does the source give for “NEDD4-like E3 ubiquitin-protein ligase WWP2 H465D, O00308” here?
A: -0.461 ± 0.06

Q: Which abundance fitness does the source give for “NEDD4-like E3 ubiquitin-protein ligase WWP2 H465E, O00308” here?
A: -0.396 ± 0.062

Q: With “NEDD4-like E3 ubiquitin-protein ligase WWP2 H465I, O00308” as the substance, how does the abundance fitness read?
A: -0.207 ± 0.08
